This is an account of results in patent publication US20040180823A1 (BURNHAM INSTITUTE, published 2004).

The target in one assay is T1, EphB4 Fc fusion protein.
T1 construct: Eph receptor Fc fusion
The assay is described as follows: immobilized peptide capturing Eph receptor Fc (methods of Example 2).

Assay [1] deals with T2, histidine-tagged mouse EphA2 Fc fusion protein (R&D Systems) (mouse, UniProt Q03145 26-535, limits assumed).
T2 construct: Bought; not shown: Fc portion and histidine tag
T2 sequence (Q03145 26-535 limits assumed): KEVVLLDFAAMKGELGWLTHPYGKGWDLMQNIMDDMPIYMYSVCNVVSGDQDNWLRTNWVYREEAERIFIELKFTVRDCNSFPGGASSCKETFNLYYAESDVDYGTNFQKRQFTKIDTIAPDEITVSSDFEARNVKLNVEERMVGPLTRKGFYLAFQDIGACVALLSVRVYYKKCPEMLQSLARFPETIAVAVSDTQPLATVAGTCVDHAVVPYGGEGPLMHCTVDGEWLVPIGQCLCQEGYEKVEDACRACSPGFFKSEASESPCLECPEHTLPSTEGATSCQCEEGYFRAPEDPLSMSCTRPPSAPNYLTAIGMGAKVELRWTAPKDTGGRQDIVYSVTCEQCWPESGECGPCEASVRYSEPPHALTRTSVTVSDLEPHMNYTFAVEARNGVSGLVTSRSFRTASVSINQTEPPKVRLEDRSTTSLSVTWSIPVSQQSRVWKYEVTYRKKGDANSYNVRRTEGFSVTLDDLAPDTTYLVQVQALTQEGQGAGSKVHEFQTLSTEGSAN
The assay is described as follows: SPR (BIAcore 3000), EphA2 Fc coupled to chip, equilibrium binding.

Ends that are not written are not given here.

T1 sequence (P54761 16-539): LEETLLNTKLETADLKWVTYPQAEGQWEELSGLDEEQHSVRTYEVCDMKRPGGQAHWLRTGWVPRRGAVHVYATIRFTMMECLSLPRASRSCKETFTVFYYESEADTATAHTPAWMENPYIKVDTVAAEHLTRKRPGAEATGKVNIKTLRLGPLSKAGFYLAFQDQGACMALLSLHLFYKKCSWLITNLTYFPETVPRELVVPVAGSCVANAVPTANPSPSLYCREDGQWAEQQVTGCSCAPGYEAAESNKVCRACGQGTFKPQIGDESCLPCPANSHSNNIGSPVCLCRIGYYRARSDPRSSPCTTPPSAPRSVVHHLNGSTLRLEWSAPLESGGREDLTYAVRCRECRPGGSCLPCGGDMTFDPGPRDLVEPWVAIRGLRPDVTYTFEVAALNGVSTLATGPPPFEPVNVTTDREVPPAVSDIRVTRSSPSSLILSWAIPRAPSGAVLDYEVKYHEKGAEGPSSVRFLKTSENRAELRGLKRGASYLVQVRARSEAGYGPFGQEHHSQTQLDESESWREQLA
Source text for EphB4 Fc fusion protein: Bound Eph receptors were detected with anti-human Fc antibody conjugated to alkaline phosphatase (AP) (Promega, Madison, Wis.). […] Substrates were 2,2′-azino-bis(3-ethylbenzthiazoline-6-sulfonic acid) for horseradish peroxidase and p-nitrophenyl phosphate for AP.

B1: DAL synthetic peptide (biotinylated) (peptide)
peptide: DALNDWLLFRPWGSGSK
modifications: also: biotinylated, position not given here
For the molecule B1, in the assay with EphB4 Fc fusion protein, the “fold more EphB4 bound compared to other EphB family receptors” value came out at 4 fold.

B2: SWL peptide (synthetic, biotinylated) (peptide)
peptide: SWLAYPGAVSYRGSGSK
modifications: also: biotinylated, position not given here
The molecule B2 showed a Kd in assay [1] of 678 nM.

The Kd is a measure of binding affinity in units of concentration. A higher Kd goes with weaker binding.
